Data: article PMC4718742 (Nature chemical biology, 2015)
One block for each binder: values may come before it.

Columns and labels:
human CypA (1–165) [1] = target: T1, human CypA (1–165) (human, UniProt P62937 1-165)
human CypA (1–165) [2] = target: T1, human CypA (1–165); assay: NMR titration

fold higher affinity than wild-type CrkII (human CypA (1–165) [1]): ~20 fold
B1: CrkII^P218F (natural protein)
chain: MAGNFDSEERSSWYWGRLSRQEAVALLQGQRHGVFLVRDSSTSPGDYVLSVSENSRVSHYIINSSGPRPPVPPSPAQPPPGVSPSRLRIGDQEFDSLPALLEFYKIHYLDTTTLIEPVSRSRQGSGVILRQEEAEYVRALFDFNGNDEEDLPFKKGDILRIRDKPEEQWWNAEDSEGKRGMIPVPYVEKYRPASASVSALIGGNQEGSHPQPLGGPEFGPYAQPSVNTPLPNLQNGPIYARVIQKRVPNAYDKTALALEVGELVKVTKINVSGQWEGECNGKRGHFPFTHVRLLDQQNP

binding result (human CypA (1–165) [2]): binds
Binder: PEPGPYAQPS [CrkII peptide (Pro216-Ser225)]
